# Data as given in the supplement of paper PMC9732359.
# ± gives the uncertainty stated by the source.
# Test: protein stability index of a GFP-peptide fusion (yeast GPS) (PSI 1-4); higher = more stable; sorted into four equal gates, so the index is relative within each strain
# Outline: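 The protein stability index of a peptide was calculated by multiplying its read frequency in each gate by that gate's number and adding the products. The peptides were tiled 17-residue stretches of yeast proteins, fused downstream of GFP on a Cherry-expressing plasmid and carried in yeast as a pooled library. Mid-log cultures in leucine-free medium were sorted into four equal gates by GFP/Cherry ratio, and each gate's plasmids were PCR-amplified and Illumina-sequenced.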
Sequence,protein stability index (doa10∆),protein stability index (pdr5∆),protein stability index (san1∆),protein stability index (ubr1∆)
TVDGRLYQLFKTCIQGI [YJL039C/NUP192],2.86 ± 0.16,2.98 ± 0.23,3.03 ± 0.11,–
TVGSSNGGLIHVVTREK [RPO21],2.98 ± 0.15,3.19 ± 0.12,2.87 ± 0.13,3.09 ± 0.07
TVISGDPNLELDQVGVP [RPO21],3.48 ± 0.23,3.2 ± 0.13,2.48 ± 0.23,3.04 ± 0.16
TVKTSDDYVLRIFAIAF [RPS1A],2.534 ± 0.02,2.308 ± 0.018,2.453 ± 0.023,2.55 ± 0.016
TVLQKNSLLLDSTPEEV [YML103C/NUP188],2 ± 0.052,2.28 ± 0.063,1.38 ± 0.079,1.42 ± 0.049
TVRASSLQDLIYKRGQA [SMC2],2.12 ± 0.073,3 ± 0.088,2.62 ± 0.08,2.51 ± 0.036
TYANVLIPCKYLNRHAD [RPN7],1.1 ± 0.08,1.25 ± 0.089,1.18 ± 0.13,1.19 ± 0.095
TYEIICDQTKSVPLMIN [RRP43],1.66 ± 0.073,2.3 ± 0.11,1.49 ± 0.11,1.55 ± 0.069
TYGISVVDVALKYPELS [NUT1],2.04 ± 0.057,2.42 ± 0.075,2.04 ± 0.078,2.6 ± 0.041
TYRCSIKNLPADVSKLM [SRB2],2.56 ± 0.061,2.83 ± 0.05,2.33 ± 0.05,2.69 ± 0.044
VAAERAARKAANKEKRA [RPL7A],2.36 ± 0.21,1.54 ± 0.12,–,1.71 ± 0.082
VAGSKCWAVRADVHFLD [RRP45],2.07 ± 0.17,2.23 ± 0.14,–,2.26 ± 0.22
VAHITTKSPAYPMMHQV [RGR1],1.79 ± 0.046,1.91 ± 0.054,1.85 ± 0.067,1.68 ± 0.068
VAIGLNGKIWVKCEELS [RRP40],1.58 ± 0.2,2.25 ± 0.24,2.94 ± 0.16,1.73 ± 0.1
VAKRRFEYSKYRPLTPS [RRP6],3.27 ± 0.066,3.28 ± 0.084,3.15 ± 0.035,2.96 ± 0.049
VALTSFLGYKAGMTTIV [RPL3],2.96 ± 0.11,2.75 ± 0.077,2.69 ± 0.078,2.85 ± 0.094
VAQPDSLRETNTTDPLG [SIR2],3.09 ± 0.17,3.45 ± 0.17,2.41 ± 0.12,3.08 ± 0.14
VAQQQVQRQIEQQKGQQ [SNF5],3.42 ± 0.079,3.14 ± 0.1,3.46 ± 0.075,3.19 ± 0.089
VDDVLETISAIEHPMTS [RPN1],3.15 ± 0.13,3.2 ± 0.091,2.79 ± 0.16,2.91 ± 0.083
VDESLLSTLPAGKSLVS [QCR2],2.65 ± 0.15,2.81 ± 0.22,1.85 ± 0.26,2.41 ± 0.13
VDFIKHSLSQAIKWDGS [PRE3],1.75 ± 0.15,2.29 ± 0.12,1.61 ± 0.26,2.48 ± 0.2
VDIRVGKKSSSSTKDYL [RET1],3.42 ± 0.29,3.37 ± 0.12,3.56 ± 0.13,2.65 ± 0.18
VDKGAIMKNKDFILSLL [YJL039C/NUP192],2 ± 0.17,1.81 ± 0.096,1.95 ± 0.11,1.96 ± 0.069
VDKSRKVAHTSYKRIYG [PRE8],3.31 ± 0.11,3.13 ± 0.13,3.28 ± 0.17,3.13 ± 0.093
VDNTVPSTTLFNFGGKS [YOR098C/NUP1],1.75 ± 0.047,2.07 ± 0.049,2.28 ± 0.058,2.38 ± 0.033
VDPFTRKEWFDIKAPST [RPS1A],2.38 ± 0.072,2.57 ± 0.067,2.55 ± 0.045,2.89 ± 0.06

Sequence,protein stability index (doa10∆),protein stability index (pdr5∆),protein stability index (san1∆),protein stability index (ubr1∆)
VDSGEERNEQEREIMND [SWI3],3.42 ± 0.069,3.26 ± 0.064,3.02 ± 0.079,3.24 ± 0.11
VDSKTKEPVDDKDVKAK [FAS2],2.31 ± 0.24,–,2.28 ± 0.13,3.28 ± 0.16
VDSTFQKVSENFEAVFE [SMC3],3.32 ± 0.088,3.38 ± 0.081,3.42 ± 0.063,3.09 ± 0.048
VDVAIPCNNRGKHSIGL [RPS0A],2.81 ± 0.096,2.91 ± 0.1,3.09 ± 0.067,3.07 ± 0.11
VEDFLERRLQTQVYKLG [RPS9A],1.28 ± 0.071,1.45 ± 0.095,1.97 ± 0.27,1.93 ± 0.18
VEDYLSSVTSDSMKYTI [RPC82],3.45 ± 0.22,3.03 ± 0.083,3.05 ± 0.14,3.04 ± 0.093
VEEIKLQKEKELHKEGT [SMC2],–,3.03 ± 0.12,2.81 ± 0.095,2.97 ± 0.096
VEELMKKRRGSRIYKTI [SNU114],1.86 ± 0.048,1.75 ± 0.053,1.62 ± 0.088,1.83 ± 0.053
VEENRVRYTTSVMPPNE [DLS1],2.62 ± 0.055,2.79 ± 0.051,2.85 ± 0.048,2.86 ± 0.055
VEFCGYSIPHPSENLLN [RPC19],2.7 ± 0.077,3.05 ± 0.062,2.92 ± 0.05,2.95 ± 0.074
VEFCRNINSTDKSIDTS [YML103C/NUP188],3.08 ± 0.11,2.93 ± 0.091,3.39 ± 0.097,3.12 ± 0.053
VEIVNYNVENQQYVAAG [FAS1],2.66 ± 0.17,2.67 ± 0.18,–,–
VEKTLLSDVAFYVQDVY [RPO31],2.11 ± 0.22,3.14 ± 0.23,–,2.49 ± 0.15
VEKVATAVLSTTARAKA [RPN2],3 ± 0.12,3.32 ± 0.086,2.93 ± 0.13,3.1 ± 0.081
VEQYKFRETTHSKRELD [BRR2],3.27 ± 0.072,2.96 ± 0.059,2.58 ± 0.054,2.73 ± 0.054
VETILSGKARICIVGGY [FAS2],1.33 ± 0.24,1.32 ± 0.17,1.23 ± 0.16,1.14 ± 0.13
VEVLLVNYNSDMIKCFL [NUT1],1.58 ± 0.1,1.74 ± 0.077,1.51 ± 0.17,2.02 ± 0.13
VFDLCWNSLMYALQSVK [RRP43],2 ± 0.062,2.02 ± 0.067,2.04 ± 0.074,1.99 ± 0.051
VFDTAITSWYENHNKGK [QCR9],2.49 ± 0.16,2.96 ± 0.12,2.65 ± 0.1,2.15 ± 0.073
VFIFPTSNWEIYKPLLF [SRB8],2.15 ± 0.06,2.6 ± 0.083,2.84 ± 0.062,2.74 ± 0.056
VFIRHRTPHEIQEANSV [RIP1],–,2.24 ± 0.28,–,1.69 ± 0.17
VFNNGIVVLVPKFGVEG [DIS3],2.22 ± 0.073,2.24 ± 0.072,2.27 ± 0.074,2.32 ± 0.053
VFQDNVYKIYNHVMPLK [SIN4],1.65 ± 0.07,1.69 ± 0.096,1.69 ± 0.098,1.62 ± 0.049
VGKVMNKNQETAISVAK [RPT6],–,3.55 ± 0.21,3.23 ± 0.082,3.4 ± 0.11
VGQLNKVVDQLFEKASV [RPN6],2.5 ± 0.063,2.51 ± 0.15,2.77 ± 0.076,2.5 ± 0.058
VGRLASVVAKQLLNGQK [RPL16A],–,1.89 ± 0.3,2.99 ± 0.13,1.67 ± 0.2
